Biological target: T1, t-PA (Homo sapiens, UniProt P00750)
Assay: Kinetics of cleavage of synthetic peptides by t-PA (HPLC, Eadie-Hofstee analysis)
Format: biochemical
Settings: hydrolysis of peptide by t-PA
Description: (§1) Concentrations of functional t-PA and u-PA were measured by active site titration with 4-methylumbelliferyl p-guanidinobenzoate (Jameson, G., et al., (1973) Biochem. J. 131, 107-117) using a Perkin-Elmer LS 50B Luminescence Fluorometer as previously described (Madison, E. L., et al., (1995) J. Biol. Chem. 270: 7558-7562). In addition, the enzymes were titrated with a standard PAI-1 preparation that had been previously titrated against a trypsin primary standard. Total enzyme concentrations were measured by ELISA.
(§2) Individual phage stocks were prepared and digested with no enzyme, t-PA, u-PA, or u-PA in the presence of 1 mM amiloride, a specific inhibitor of u-PA. Kinetic-data were obtained by incubating various concentrations of peptide with a constant enzyme concentration to achieve between 5 and 20% cleavage of the peptide in each reaction. For assays with u-PA, enzyme concentration was either 815 or 635 nM. For assays with t-PA enzyme concentration was 700 nM. […] The buffer used in these assays has been described (Madison, E. L., et al., 1995). Reactions were stopped by addition of triflouroacetic acid to 0.33% or by freezing on dry ice. Cleavage of the 13 and 14 residue peptides was monitored by reverse phase HPLC as described (Madison, E. L., et al., 1995). The 4-6 residue peptides were acylated at their amino termini and amidated at their carboxyl termini. Cleavage of the 4-6 residue peptides was monitored by hydrophilic interaction HPLC chromatography (HILIC) (Alpert, A. J. (1990) J. Chromatog. 499, 177-196.) using a polyhydroxyaspartamine column from PolyLC (Columbia, Md.). Buffer A was 50 mM triethylamine phosphate in 10% acetonitrile and buffer B was 10 mM triethylamine phosphate in 80% acetonitrile. Peptides were eluted by a gradient which was varied from 100% Buffer B to 100% Buffer A during a 13 minute interval. The percent of cleaved peptide was calculated by dividing the area under the product peaks by the total area under substrate and product peaks. For all peptides containing multiple basic residues, mass spectral analysis of products confirmed that cleavage occurred at a single site and identified the scissile bond. Data were interpreted by Eadie-Hofstee analysis. Errors were determined as described (Taylor, J. R., 1982) An introduction to error analysis. The study of uncertainties in physical measurements. University Science Books, Mill Valley, Calif.) and were <25%.
(§3) Kinetic data were obtained by incubating various concentrations of peptide with a constant enzyme concentration to achieve between 5 and 20% cleavage of the peptide in each reaction as described in Example 1.

T1 sequence (P00750 36-562): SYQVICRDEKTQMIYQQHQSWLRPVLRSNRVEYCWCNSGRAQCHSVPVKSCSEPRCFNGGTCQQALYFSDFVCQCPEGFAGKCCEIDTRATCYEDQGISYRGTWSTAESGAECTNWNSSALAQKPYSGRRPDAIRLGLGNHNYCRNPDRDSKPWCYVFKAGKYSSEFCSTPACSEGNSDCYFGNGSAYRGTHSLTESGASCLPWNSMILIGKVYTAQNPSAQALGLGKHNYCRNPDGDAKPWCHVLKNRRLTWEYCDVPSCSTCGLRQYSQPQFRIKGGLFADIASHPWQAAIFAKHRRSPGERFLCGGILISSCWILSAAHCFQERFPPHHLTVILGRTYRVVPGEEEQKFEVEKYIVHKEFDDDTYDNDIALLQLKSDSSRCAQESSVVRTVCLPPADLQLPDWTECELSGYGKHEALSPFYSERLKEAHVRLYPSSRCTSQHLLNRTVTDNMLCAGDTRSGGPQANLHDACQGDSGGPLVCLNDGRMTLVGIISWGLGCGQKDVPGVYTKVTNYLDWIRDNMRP

**Q.** For “GSGK↓S (GSGKS; listed as Homo sapiens) [XVIII]”, which Km is on record?
**A.** The Km was 44 mM.

**Q.** What about the “kcat, t-PA” value of the same substance?
**A.** The value was 0.07 s⁻¹.

**Q.** With “LGGSGR↓KASLSLE (LGGSGRKASLSLE; listed as Homo sapiens) [XIV]” as the substance, how does the Km read?
**A.** Its Km is 5.1 mM.

**Q.** And the “kcat, t-PA” value?
**A.** Its value is 0.168 s⁻¹.

**Q.** Which Km does the source give for “LGGSGR↓SATRDLE (LGGSGRSATRDLE; listed as Homo sapiens) [XIII]” here?
**A.** Its Km is 1.5 mM.

**Q.** And the “kcat, t-PA” value?
**A.** The value was 0.068 s⁻¹.

**Q.** For “SGK↓S (SGKS; listed as Homo sapiens) [XVII]”, which Km is on record?
**A.** Its Km is 28 mM.

**Q.** And the “kcat, t-PA” value?
**A.** Its value is 0.19 s⁻¹.

**Q.** What does the source list for “SGR↓S (SGRS; listed as Homo sapiens) [XV]”?
**A.** Km: 15 mM; kcat, t-PA: 5.0 s⁻¹

**Q.** Which results are given for “SGR↓SA (SGRSA; listed as Homo sapiens) [XVI]”?
**A.** Km: 40 mM; kcat, t-PA: 2.4 s⁻¹

Same assay, conditions: ratio of kcat/Km for peptide hydrolysis, t-PA over u-PA

**Q.** With “FRGR↓K (FRGRK; listed as Homo sapiens) [VII]” as the substance, how does the “t-PA:u-PA Selectivity” value read?
**A.** The value was “approximately 74”.

**Q.** “SGK↓S (SGKS; listed as Homo sapiens) [XVII]” was tested. Which “t-PA:u-PA Selectivity” value did it give?
**A.** The value was 0.04.

**Q.** “SGR↓S (SGRS; listed as Homo sapiens) [XV]” was tested. Which “t-PA:u-PA Selectivity” value did it give?
**A.** Its value is 0.30.

Biological target: T2, u-PA (Homo sapiens, UniProt P00749)
T2 construct: purchased Jack Henkin (Abbott Laboratories)
Assay: Kinetics of cleavage of synthetic peptides by u-PA (HPLC, Eadie-Hofstee analysis)
Format: biochemical
Settings: hydrolysis of peptide by u-PA
Description: as §1, §2, §3

**Q.** What does the source list for “GSGK↓S (GSGKS; listed as Homo sapiens) [XVIII]”?
**A.** Km: 4.25 mM; kcat, u-PA: 0.82 s⁻¹

**Q.** Which results are given for “LGGSGR↓KASLSLE (LGGSGRKASLSLE; listed as Homo sapiens) [XIV]”?
**A.** Km: 1.13 mM; kcat, u-PA: 1.14 s⁻¹

**Q.** How did the Km turn out when “LGGSGR↓SATRDLE (LGGSGRSATRDLE; listed as Homo sapiens) [XIII]” was run?
**A.** Its Km is 0.733 mM.

**Q.** And the “kcat, u-PA” value?
**A.** The value was 0.54 s⁻¹.

**Q.** Which Km does the source give for “SGK↓S (SGKS; listed as Homo sapiens) [XVII]” here?
**A.** Its Km is 7.9 mM.

**Q.** And the “kcat, u-PA” value?
**A.** Its value is 1.22 s⁻¹.

**Q.** What does the source list for “SGR↓S (SGRS; listed as Homo sapiens) [XV]”?
**A.** Km: 2.1 mM; kcat, u-PA: 2.3 s⁻¹

**Q.** With “SGR↓SA (SGRSA; listed as Homo sapiens) [XVI]” as the substance, how does the Km read?
**A.** The Km was 3.1 mM.

**Q.** And the “kcat, u-PA” value?
**A.** Its value is 3.7 s⁻¹.

System: u-PA
Assay: as above
Format: biochemical
Settings: ratio of kcat/Km for peptide hydrolysis, u-PA over t-PA
Description: as §1, §2, §3

**Q.** Which “u-PA:t-PA Selectivity” value does the source give for “GSGK↓S (GSGKS; listed as Homo sapiens) [XVIII]” here?
**A.** Its value is “approximately 120”.

Biological target: T1, t-PA
Assay: Dot blot assay of digestion of individual substrate phage stocks by t-PA
Format: biochemical
Settings: digestion by t-PA and u-PA
Description: (§4) To verify that the substrate subtraction library had yielded substrates that were preferentially cleaved by t-PA, digestion of individual phage stocks by t-PA and u-PA was analyzed by a dot blot assay that was performed as previously described (Ding, L., et al., 1995; Smith, M. M., et al., 1995) (FIG. 3). Loss of positive staining indicates loss of antibody epitopes from the phage due to proteolytic cleavage of the random hexamer region.
(§5) In general, with the exception of the screening protocol, procedures followed were those used in Example 1. Digestion of the phage was performed using enzyme concentrations varying from 2-10 μg/ml and incubation times varying from 0.5-10 hours. Phage precipitation and dot blot analysis were performed as described in Example 1. Individual phage stocks were prepared and digested with no enzyme, t-PA, u-PA, or u-PA in the presence of 1 mM amiloride, a specific inhibitor of u-PA′ for periods of time varying from 15 minutes to 10 hours. Individual reaction mixtures were spotted onto a nitrocellulose filter using a dot blotter apparatus (BioRad). The filter was probed with MAb 3E-7 and developed using the Amersham Western ECL kit. Loss of positive staining indicates loss of antibody epitopes from the phage due to proteolytic cleavage of the randomized hexamer region.

**Q.** Which “selectivity of substrate phage for t-PA or u-PA” value does the source give for FRGRAA [Phage 7] here?
**A.** Its value is “t-PA selective substrate”.

**Q.** How did the “selectivity of substrate phage for t-PA or u-PA” value turn out when RSANAI [Phage 33] was run?
**A.** Its value is “u-PA selective substrate”.

Same assay, conditions: loss of antibody epitopes

**Q.** With “PGRVVG [Control phage PL, reference compound]” as the substance, how does the “digestion of phage stock by t-PA” value read?
**A.** The value was “not digested by either enzyme”.

**Q.** With RIARRA [Substrate phage 51] as the substance, how does the “digestion of phage stock by t-PA” value read?
**A.** The value was “substrate of both t-PA and u-PA”.

Biological target: T2, u-PA
Assay: Dot blot assay of digestion of individual substrate phage stocks by u-PA
Format: biochemical
Settings: loss of antibody epitopes
Description: as §4
as §5, with “The filter was probed with MAb 3E-7 and developed using the Amersham Western ECL kit. Loss of positive staining indicates loss of antibody epitopes from the phage due to proteolytic cleavage of the randomized hexamer region.” left out
Two changes were made in the experimental protocol to examine the P3 and P2 preferences of u-PA. […] Although this semi-quantitative assay cannot provide kinetic constants, it can provide an accurate rank ordering of the lability of the substrate phage clones.

**Q.** With “PGRVVG [Control phage PL, reference compound]” as the substance, how does the “digestion of phage stock by u-PA” value read?
**A.** Its value is “not digested by either enzyme”.

**Q.** With RIARRA [Substrate phage 51] as the substance, how does the “digestion of phage stock by u-PA” value read?
**A.** Its value is “substrate of both t-PA and u-PA”.

Source: patent US20030186329A1, “Use of substrate subtraction libraries to distinguish enzyme specificities” (The Scripps Research Institute, priority 1998, published 2003)
